These results are taken from paper PMC3112360.

Test [1] addresses homocysteinylated FN40K fragment (human) (UniProt P02751). Briefly: ELISA.
Test [2] has as its target homocysteinylated fibronectin (human (endogenous in primary human dermal fibroblasts)) (UniProt P02751). Put plainly: ELISA. In general terms: An ELISA detects its analyte on a solid surface through an enzyme-linked reagent.

Chain of homocysteinylated FN40K fragment (human) (P02751 32-2477): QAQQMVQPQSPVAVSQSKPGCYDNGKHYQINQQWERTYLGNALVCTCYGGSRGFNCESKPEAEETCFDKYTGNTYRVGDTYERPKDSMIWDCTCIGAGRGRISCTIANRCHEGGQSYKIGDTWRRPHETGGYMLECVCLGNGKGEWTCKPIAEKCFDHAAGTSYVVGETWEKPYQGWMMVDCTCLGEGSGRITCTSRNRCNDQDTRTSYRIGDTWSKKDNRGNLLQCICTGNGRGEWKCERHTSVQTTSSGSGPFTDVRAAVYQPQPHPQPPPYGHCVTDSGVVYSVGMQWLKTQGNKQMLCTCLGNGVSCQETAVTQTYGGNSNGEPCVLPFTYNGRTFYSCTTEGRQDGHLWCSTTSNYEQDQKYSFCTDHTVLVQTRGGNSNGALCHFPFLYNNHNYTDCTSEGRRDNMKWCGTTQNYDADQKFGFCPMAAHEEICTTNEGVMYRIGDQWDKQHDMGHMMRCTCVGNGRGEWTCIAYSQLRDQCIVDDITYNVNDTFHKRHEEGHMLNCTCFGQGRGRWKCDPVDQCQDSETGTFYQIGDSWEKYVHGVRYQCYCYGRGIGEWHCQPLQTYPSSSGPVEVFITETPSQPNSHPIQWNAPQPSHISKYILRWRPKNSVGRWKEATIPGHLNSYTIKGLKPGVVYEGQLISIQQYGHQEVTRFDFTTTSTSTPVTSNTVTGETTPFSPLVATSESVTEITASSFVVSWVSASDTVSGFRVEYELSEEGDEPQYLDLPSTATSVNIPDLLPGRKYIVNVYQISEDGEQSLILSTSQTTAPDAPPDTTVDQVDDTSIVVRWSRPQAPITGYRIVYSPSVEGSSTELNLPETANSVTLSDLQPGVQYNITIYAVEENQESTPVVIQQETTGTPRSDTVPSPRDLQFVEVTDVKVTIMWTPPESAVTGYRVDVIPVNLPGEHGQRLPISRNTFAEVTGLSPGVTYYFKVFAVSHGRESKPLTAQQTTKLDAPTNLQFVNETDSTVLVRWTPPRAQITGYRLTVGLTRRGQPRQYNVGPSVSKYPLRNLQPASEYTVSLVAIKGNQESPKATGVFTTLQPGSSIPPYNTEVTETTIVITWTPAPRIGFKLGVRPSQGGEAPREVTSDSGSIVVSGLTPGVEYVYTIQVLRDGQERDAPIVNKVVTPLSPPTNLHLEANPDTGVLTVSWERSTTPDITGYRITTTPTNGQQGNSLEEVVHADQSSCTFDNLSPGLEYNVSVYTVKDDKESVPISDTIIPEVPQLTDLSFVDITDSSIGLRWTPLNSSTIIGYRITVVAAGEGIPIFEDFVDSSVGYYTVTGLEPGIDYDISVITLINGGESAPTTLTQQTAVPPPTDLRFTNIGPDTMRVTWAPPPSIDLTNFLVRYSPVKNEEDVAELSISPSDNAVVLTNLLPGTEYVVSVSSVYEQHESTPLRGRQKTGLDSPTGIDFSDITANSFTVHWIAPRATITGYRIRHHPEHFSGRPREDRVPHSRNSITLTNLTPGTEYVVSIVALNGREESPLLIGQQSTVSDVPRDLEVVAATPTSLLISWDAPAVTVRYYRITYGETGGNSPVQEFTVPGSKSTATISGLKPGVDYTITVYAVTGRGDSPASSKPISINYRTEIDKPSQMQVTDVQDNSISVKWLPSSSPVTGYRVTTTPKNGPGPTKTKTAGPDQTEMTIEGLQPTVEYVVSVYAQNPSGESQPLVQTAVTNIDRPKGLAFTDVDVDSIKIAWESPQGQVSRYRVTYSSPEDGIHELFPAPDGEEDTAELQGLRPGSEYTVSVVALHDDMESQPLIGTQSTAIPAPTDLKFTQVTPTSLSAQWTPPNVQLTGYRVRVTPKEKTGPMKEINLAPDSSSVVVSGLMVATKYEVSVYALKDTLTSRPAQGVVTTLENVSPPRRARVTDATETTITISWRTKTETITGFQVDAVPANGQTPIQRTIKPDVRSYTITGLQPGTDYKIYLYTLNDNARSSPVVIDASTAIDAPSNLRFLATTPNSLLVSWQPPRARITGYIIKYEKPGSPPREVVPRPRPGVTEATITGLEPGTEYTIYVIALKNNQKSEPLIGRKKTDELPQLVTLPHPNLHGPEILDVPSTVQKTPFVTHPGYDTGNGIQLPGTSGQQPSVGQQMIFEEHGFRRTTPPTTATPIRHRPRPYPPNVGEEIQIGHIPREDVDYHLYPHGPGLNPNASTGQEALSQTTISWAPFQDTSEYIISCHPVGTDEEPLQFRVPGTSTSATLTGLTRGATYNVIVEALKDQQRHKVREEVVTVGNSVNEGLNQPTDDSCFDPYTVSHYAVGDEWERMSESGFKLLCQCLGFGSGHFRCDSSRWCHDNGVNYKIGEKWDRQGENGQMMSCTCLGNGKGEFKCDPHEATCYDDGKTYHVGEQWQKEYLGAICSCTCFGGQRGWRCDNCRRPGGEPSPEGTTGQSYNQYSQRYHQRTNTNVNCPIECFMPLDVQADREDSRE
Chain of homocysteinylated fibronectin (human (endogenous in primary human dermal fibroblasts)) (P02751 32-2477): as above

Consider “recombinant C-terminal half of fibrillin-1 (rFBN1-C) (from UniProt P35555 45-2731) (domain or fragment)”, for which the results for the relative reduction in binding against the non-modified control in test [1] and in test [2] were 34.1% and 65%, respectively.
